The values below come from US20190040132A1 (FRED HUTCHINSON CANCER RESEARCH CENTER, published 2019).

The target of this assay is T1, human ROR2 (human, UniProt Q01974 34-943).
T1 construct: also called K562 expressing human ROR2
The assay can be described thus: IHC on FFPE K562 cells transduced with human ROR2.

T1 sequence (Q01974 34-943 limits assumed): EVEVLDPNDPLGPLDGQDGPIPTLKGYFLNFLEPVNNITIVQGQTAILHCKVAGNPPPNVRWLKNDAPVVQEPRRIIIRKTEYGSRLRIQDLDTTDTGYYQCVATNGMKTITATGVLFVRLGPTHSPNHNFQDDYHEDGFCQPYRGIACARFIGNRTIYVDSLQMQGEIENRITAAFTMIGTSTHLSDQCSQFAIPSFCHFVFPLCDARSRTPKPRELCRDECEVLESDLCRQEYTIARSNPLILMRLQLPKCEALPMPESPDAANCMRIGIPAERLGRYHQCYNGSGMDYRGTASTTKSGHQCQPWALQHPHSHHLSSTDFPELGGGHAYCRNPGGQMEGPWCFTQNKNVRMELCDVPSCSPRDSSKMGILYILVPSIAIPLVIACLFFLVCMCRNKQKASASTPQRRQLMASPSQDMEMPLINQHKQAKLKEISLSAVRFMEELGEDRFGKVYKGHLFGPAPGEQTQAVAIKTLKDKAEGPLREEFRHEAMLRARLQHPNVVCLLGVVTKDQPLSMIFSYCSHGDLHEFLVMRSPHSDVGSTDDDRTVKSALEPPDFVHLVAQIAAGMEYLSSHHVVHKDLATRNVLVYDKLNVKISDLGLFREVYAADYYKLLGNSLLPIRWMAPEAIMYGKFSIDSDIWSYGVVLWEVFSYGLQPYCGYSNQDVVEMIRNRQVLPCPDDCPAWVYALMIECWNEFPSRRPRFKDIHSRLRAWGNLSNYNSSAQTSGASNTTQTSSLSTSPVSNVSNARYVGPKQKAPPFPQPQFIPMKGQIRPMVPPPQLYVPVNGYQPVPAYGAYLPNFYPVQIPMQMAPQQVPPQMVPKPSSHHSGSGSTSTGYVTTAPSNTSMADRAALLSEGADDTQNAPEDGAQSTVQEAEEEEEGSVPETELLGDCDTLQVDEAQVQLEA

B1: anti-ROR1 monoclonal antibody 6D4 (antibody, V domains shown)
VH: SGPELVKPGTSVKMSCKASGYTFTDYYMNWVKQTHGKNLEWIGRVNPSNGNTDYNQKFKGKATLTVDKSLSTAYMQLSSLTSEDSAVYYCGRLAYWGQGSLVTVSA
VL: LTQSPASLAVSPGQRATISCKASQSVDYDGETYMNWYQQKSGQPPKLLIYAASNLESGIPARFSGSGSGTDFTLNIHPVEEEDAATYYCLQTLKNPYTFGGGTKLEIK
notes: Mouse monoclonal antibody from a hybridoma, used as supernatant or purified; also called mAb 6D4; clone 6D4
With B1, the binding result was “no binding”.
